assay: yeast display, Sf9 membrane polyspecificity reagent, FACS + sequencing; frameworks hold sequencing errors
Outline: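 After 36–48 hours of galactose induction, yeast (Saccharomyces cerevisiae BJ5465) displaying a synthetic nanobody library were stained at 4 °C for 1 hour with 10% biotinylated, detergent-solubilized Sf9 membrane reagent. Streptavidin microbeads enriched the stained cells before FACS sorting into low and high (top ~1%) gates on anti-HA and streptavidin fluorescence. Each clone's polyreactivity label reflects its gate of origin.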

Row | Sequence | polyreactivity (PSR sort gate)
1 | QVQLVESGGGLVQAGGSLRLSCAASGSIFSYYVMGWYRQAPGKERELVAAITRSGGSTYYADSVKGRFTISRDNAKNTVYLQMNRLKPEDTAVYYCAATYSHRRGDYWGQGTQVTVSS | high polyreactivity
2 | QVQLVESGGGLVQAGGSLRLSCAASGSIFSYYVMGWYRQAPGKERELVARINWSSTSTYYADSVKGRFTISRDNAKNTVYLQMNSLKPEDTAVYYCAAAKRYGRYYEYDYWGQGTQVTVSS | high polyreactivity
3 | QVQLVESGGGLVQAGGSLRLSCAASGSIFTAYARGWYRQAPGKERELVAAISRSGGRTYYADSVKGRFTISRDNPKKTVYLQMNSLKPEDTAVYYCAARRRRYIANLYNYWGQGTQVTVSS | high polyreactivity
4 | QVQLVESGGGLVQAGGSLRLSCAASGSIFTAYDMGWYRQAPGKERELVAAINVSAGTTYYADSVKGRFTISRDNAKNTVYLQMNSLKPEDTAVYYCAATFGGWGYVYVHYYYWGQGTQVTVSS | high polyreactivity
5 | QVQLVESGGGLVQAGGSLRLSCAASGSIFTAYTMGWYRQAPGKERELVAAITERGGSTYYADSVKGRFTISRDNAKNTVYLQMNSMKPEDTAVYYCAASTLKDIYLWFRVDYWGQGTQVTVSS | low polyreactivity
6 | QVQLVESGGGLVQAGGSLRLSCAASGSIFTDNVMGWYRQAPGKERELVAAITYSAASTYYADSVKGRFTISRDNAKNTVYLQMNSLKPEDTAVYYCATEYYIGVNYRGDYWGQGTQVTVSS | low polyreactivity
7 | QVQLVESGGGLVQAGGSLRLSCAASGSIFTEYVMGWYRQAPGKERELVAAAITRGGSTNYADSVKGRFTISRDNAKNSVYLQMYCLKPEDTAVYYCNKDVWPVSRQLYTGKYDSWGQGTQVTVSS | low polyreactivity
8 | QVQLVESGGGLVQAGGSLRLSCAASGSIFTFYAMGWYRQAPGKERELVATITISTGSTYYADSVKGRFTISRDNAKNTVYLQMNCLKPEDTAVYYCAARRRSAEYNYWGQGTQVTVSS | high polyreactivity
9 | QVQLVESGGGLVQAGGSLRLSCAASGSIFTHNAMGWYRQAPGKERVLVAAISSGGSTNYADSVKGRFTISRDNAKNTVYLQMNSLKPEDTAVYYCAKSIDGWYWRRRRYDYWVQGTQVTVSS | low polyreactivity
10 | QVQLVESGGGLVQAGGSLRLSCAASGSIFTIYAMGWYRQAPGKERELVAAITWSGGSTYYADSVKGRFTISRDNAKNTVYLQMNSLKPEDTAVYYCAAKYYGEMYYWGQGTQVTVSS | low polyreactivity
11 | QVQLVESGGGLVQAGGSLRLSCAASGSIFTKYAMGWYRQAPGKERELVAGISRTTGSTYYADSVKGRFTISRDNAKNTVYLQMNSLKPEDTAVSYCNAVYGHGNYFRSEDDYWGQGTQVTVSS | high polyreactivity
12 | QVQLVESGGGLVQAGGSLRLSCAASGSIFTLNAMGWYRQAPGKEREFVAAITWSGGSTYYADSVKGRFTISRDNAKNTVYLQMNSLKPEDTAVYYCNVEPVDRWYYKYDYWGQGTQVTVSS | low polyreactivity
13 | QVQLVESGGGLVQAGGSLRLSCAASGSIFTLYAMGWNRQAPGQERELVAAITRSGGSTYYADSVKGRFTSSRDNAKNTVYLQMNSLKPEDTAVYYCAADKAPYSTEGDYWGQGTQVTVSS | high polyreactivity
14 | QVQLVESGGGLVQAGGSLRLSCAASGSIFTLYARGWYREAPGKERELVAAITWTGGSTYYADSVKGRFTISRDNAKNTVYLQMNSLKPEDTAVYYCATDAYWQSNGAFYYVARHGGYWGQGTQVTVSS | low polyreactivity
15 | QVQLVESGGGLVQAGGSLRLSCAASGSIFTNNAMGWYRQAPGKERELVAGISFRGSSTYADSVKGRFTISRDNAKNTVYLQMNSLKPEDTAVYYCAAEWFDLEDDYWGQGTQVTVSS | low polyreactivity
16 | QVQLVESGGGLVQAGGSLRLSCAASGSIFTPNAMGGYRQAPGKERELVAAISSSSDRTYYADSVKGRFTISRDNAKNTVYLQMNSLKPEDTAVYYCAAYAQQRYYWGQGTQVTVSS | high polyreactivity
17 | QVQLVESGGGLVQAGGSLRLSCAASGSIFTPNAMGWYRQAPGKERELVAAISSSSDRTSYADSVKGRFTISRDNAKYTVYLQMNSLKPEDTAVYYCAAYSQKRYYWGQGTQVTVSS | high polyreactivity
18 | QVQLVESGGGLVQAGGSLRLSCAASGSIFTPYAMGWYRQAPGKERELVAAITQTGGITYYADSVKGRFTISRDNAKNTVYLQMNSLKPEDTAVYYCAADDYNPFSYSYGLEYWGQGTQVTVSS | low polyreactivity
19 | QVQLVESGGGLVQAGGSLRLSCAASGSIFTPYAMVWYRQAPGQERELVAAITSGGSTYYADSVKGRFTISRDNAKNTVYLQMNSLKPEDTAVYYCARRVWNYLRRSWYDYWGQGTQVTVSS | high polyreactivity
20 | QVQLVESGGGLVQAGGSLRLSCAASGSIFTRNTMGWYRQAPGKDRELVAAITWIGGRTYYADSVKGRFTISRDNAKNTVYLQMNSLKPEDTAVYYCAARSDPYWWQKYYYWGQGTQVTVSS | high polyreactivity
21 | QVQLVESGGGLVQAGGSLRLSCAASGSIFTRYAMGWYRQAPGKERELVATISFIGSSTYYADSVKGRFTISRDNAKNTVYLQMNSLKPEDTAVYSCAATGYARQYEYRYDYWGQGTQVTVSS | low polyreactivity
22 | QVQLVESGGGLVQAGGSLRLSCAASGSIFTRYAMGWYRQSPGKERELVAALSYRGGRTYYADSVKGRFTISRDNAKNTVYLQMNSLKPVDTAVYYCAAGYRFSYSPNEFYYWGQGTQVTVSS | high polyreactivity

Row | Sequence | polyreactivity (PSR sort gate)
23 | QVQLVESGGGLVQAGGSLRLSCAASGSIFTSYAMGWYRQAPGTERELVAVITSSGSSTYYADSVKGRFTISRDNAKNTVYLQMNSMKPEDTAVYYCYGYYDAYGYWGQGTQVTVSS | low polyreactivity
24 | QVQLVESGGGLVQAGGSLRLSCAASGSIFTSYVMGWYRQAPGKERELVAAINSGGRTYYADSVKGRFTISRDNAKNTVYLQMNSLKPEDTAVYYCATDLLYYQYYSEYDYWGQGTQVTVSS | high polyreactivity
25 | QVQLVESGGGLVQAGGSLRLSCAASGSIFTTNAMGWYRQAPGKERELVAAISSRGTSTYYADSVKGRFTISRDNAKNTVYLQMNSLKPEDTAVYYCAADYVYASRHFEYWGQGTQVTVSS | high polyreactivity
26 | QVQLVESGGGLVQAGGSLRLSCAASGSIFTTYAMGWYRQAPGKERELVATITSSDSTNYADSVKGRFTISRDNAKNTVYLQMNSLKPEDTAVYYCNAGGDRTVSVAWYSADDYWGQGTQVTVSS | low polyreactivity
27 | QVQLVESGGGLVQAGGSLRLSCAASGSIFTTYTMGWYRQAPGKERELVAAITSSSGSTYYADSVKGRFTISRDHAKNTVYLQMNSLKPEDTAVYYCNATYSAAVDYWGQGTQVTVSS | low polyreactivity
28 | QVQLVESGGGLVQAGGSLRLSCAASGSIFTVYAMGWYRQAPGKERELVATITGSDGRTDYADSVKGRFTISRDNAKNTVYLQMNSLKPEDTAVYYCAAQVFKWKYRQSLWFDQGYYWGQGTQVTVSS | low polyreactivity
29 | QVQLVESGGGLVQAGGSLRLSCAASGSIFTWYTMGWYRQAPGKERELVAAISWSGGRTYYADSVKGRFTISRDNAKHTVYLQMNSLKPEDTAVYYCAASAYGRPPFDYWGQGTQVTVSS | high polyreactivity
30 | QVQLVESGGGLVQAGGSLRLSCAASGSIFTYNAMGWYRPAPGKERELVASITWSGGSTYYADSVKGRFTISRDNAKNTVSLQMNSLKPEDTAVYYCAAKRVHGATGYWGQGTQVTVSS | high polyreactivity
31 | QVQLVESGGGLVQAGGSLRLSCAASGSIFTYTMGGYRQAPGKERELVATISRTGSTNYADSVKGRFTISRDNAKNTVYLQMNSLKPEDTAVYYCSKGAYITGAWPFYELITPYAYWGQGTQVTVSS | high polyreactivity
32 | QVQLVESGGGLVQAGGSLRLSCAASGSIFTYYAMGWYRKAPGKERELVAAITKSGGRTYYAHSVMGRFTISRDNAKNTVYLQMNRLKPEDTAVYYCAALYGRYQTSYQFDYWGQGTQVTVSS | high polyreactivity
33 | QVQLVESGGGLVQAGGSLRLSCAASGSIFTYYAMGWYRQAPGKEREFVAAISRRGGSTYYADSVKGRFTISRDNAKNTVYLQMNSLKPEDTAVYFCAADRWTRTLVKVIGRYYYCGQGTQVTVSS | high polyreactivity
34 | QVQLVESGGGLVQAGGSLRLSCAASGSIFTYYAMGWYRQAPGKERELVAAINSGGRTNYADSVKGRFTISRDNAKNTVYLQMNSLKPEDTAVYYCAKYGVLQYGYWGQGTQVTVSS | low polyreactivity
35 | QVQLVESGGGLVQAGGSLRLSCAASGSIFTYYAMGWYRQAPGKERELVAAISSDGGRTFYADSVKGRFTISRDNAKNTVYLQMNSLKPEDTAVYYCAAETNRFPGYGYWGQGTQVTVSA | low polyreactivity
36 | QVQLVESGGGLVQAGGSLRLSCAASGSIFTYYTMGWYRPAPGKERELVAAIRWSAGRTYYADSVKGRFTISRDNAKNTVYLQMNSLKPEDTAVYYCAAAERLRHGLKFDYWGQGTQVTVSS | high polyreactivity
37 | QVQLVESGGGLVQAGGSLRLSCAASGSIFTYYVMGWYRQAPGKERELVAAITISGGSTYYADSVKGRFTISRDNAKITVYLQMKSLKPEDTAVYYCAAEEVYYEADGFQYSYDYWGQGTLVTVSS | high polyreactivity
38 | QVQLVESGGGLVQAGGSLRLSCAASGSIFVANAMGWYRQAPGKERELVAAISGSGDRTRYADSVKGRFTISRDNAKNTVYLQMNSLKPEDTAVYYCNARYYASGNLYNYWGQGTQVTVSS | high polyreactivity
39 | QVQLVESGGGLVQAGGSLRLSCAASGSIFVANAMGWYRQAPVKERELVAAISRRGGSTYYADSVKGRFTISRDNAKNTVYLQMNSLKPEDTAVYYCAAEDVYEYDYWGQGTQVTVSS | high polyreactivity
40 | QVQLVESGGGLVQAGGSLRLSCAASGSIFVDTAMGWYRQAPGKERELVAAINWSGGSTYYADSVKGRFTISRDNAQNTVYLQMNSLKPEDTAVYYCYAARPGQTWDEHSWYEYWGQGTQVTVSS | low polyreactivity
41 | QVQLVESGGGLVQAGGSLRLSCAASGSIFVFNAMGWYRQAPGKERELVAAISSSGGSTYYADSVKGRFTISRDNAKNTVYLQMNSLKPEDTAVYYCNKRLYYQRWPAAAREYWGQGTQVTVSS | high polyreactivity
42 | QVQLVESGGGLVQAGGSLRLSCAASGSIFVFYDMGWYRQAPGKERELVATISSGGGGTYYTDSVKGRFTISRDNAKNTVYLQLNSLKPEDTAVYYCAAEGDKYGKGYGYWGQGTQVTVSS | low polyreactivity
43 | QVQLVESGGGLVQAGGSLRLSCAASGSIFVFYDMGWYRQAPGKERELVATISSGGGGTYYTDSVKGRFTISRDNAKNTVYLQMNSLKPEDTAVYYCAAEGDKYGKGYGYWGQGTQVTVSS | low polyreactivity

— the nanobody polyreactivity screen of Harvey et al. (2022)
